Source: article PMC7087056 (The Yale Journal of Biology and Medicine, 2020)

Target: T1, His6-K10^C401A-2B (human keratin 10 helix 2B domain with C401A, His6 tag kept) (human, UniProt P13645 337-456, C401A)
T1 sequence (looked up): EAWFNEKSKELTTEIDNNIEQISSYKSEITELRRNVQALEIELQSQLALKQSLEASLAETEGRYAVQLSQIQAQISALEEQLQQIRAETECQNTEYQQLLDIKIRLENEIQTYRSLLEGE
Assay: pull-down

stoichiometry N: 1
B1: human keratin 1 helix 2B domain (K1-2B) (domain or fragment, UniProt P04264 370-489, looked up)
chain: ESLYQSKYEELQITAGRHGDSVRNSKIEISELNRVIQRLRSEIDNVKKQISNLQQSISDAEQRGENALKDAKNKLNDLEDALQQAKEDLARLLRDYQELMNTKLALDLEIATYRTLLEGE
